Assay [1] addresses T1, MASP-3 (human, UniProt P48740-2 20-728, limits assumed).
T1 construct: Species read from 'Recombinant human MASP-2 or C1r, C1s, CFD, MASP-1 and MASP-3'
T1 sequence (looked up): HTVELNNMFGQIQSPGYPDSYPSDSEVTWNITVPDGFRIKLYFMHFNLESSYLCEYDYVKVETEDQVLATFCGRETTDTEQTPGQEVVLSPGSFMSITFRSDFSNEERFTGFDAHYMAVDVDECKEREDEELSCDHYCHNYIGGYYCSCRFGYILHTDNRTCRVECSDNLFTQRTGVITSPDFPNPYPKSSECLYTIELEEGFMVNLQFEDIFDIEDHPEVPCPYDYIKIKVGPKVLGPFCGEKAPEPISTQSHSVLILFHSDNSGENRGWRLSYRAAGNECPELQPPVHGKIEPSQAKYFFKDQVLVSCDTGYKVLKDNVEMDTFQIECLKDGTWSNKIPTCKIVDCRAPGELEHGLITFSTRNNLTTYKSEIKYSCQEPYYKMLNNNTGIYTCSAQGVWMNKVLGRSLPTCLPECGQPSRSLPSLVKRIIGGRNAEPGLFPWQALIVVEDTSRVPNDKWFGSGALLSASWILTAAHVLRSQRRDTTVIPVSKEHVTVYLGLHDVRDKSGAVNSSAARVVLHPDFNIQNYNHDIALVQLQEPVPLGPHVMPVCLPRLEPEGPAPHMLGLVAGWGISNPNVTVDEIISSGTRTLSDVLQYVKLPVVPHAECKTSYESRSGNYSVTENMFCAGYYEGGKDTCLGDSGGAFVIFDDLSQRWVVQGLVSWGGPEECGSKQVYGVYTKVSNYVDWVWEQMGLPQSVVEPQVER
The assay can be described thus: solid phase ELISA, immobilized protease, mean apparent KD of two lots. The source says: (§1) The apparent dissociation constant (KD) was estimated by nonlinear regression using a 4-parameter logistic model.
(§2) Fold selectivity calculated as KD(related serine protease)/mean KD(MASP-2).
(In general: In an ELISA, binding on a coated surface is turned into a signal by an enzyme label.)

Assay [2] concerns the target T2, MASP-1 (human, UniProt P48740 20-699, limits assumed).
T2 construct: Species read from 'Recombinant human MASP-2 or C1r, C1s, CFD, MASP-1 and MASP-3'
T2 sequence (looked up): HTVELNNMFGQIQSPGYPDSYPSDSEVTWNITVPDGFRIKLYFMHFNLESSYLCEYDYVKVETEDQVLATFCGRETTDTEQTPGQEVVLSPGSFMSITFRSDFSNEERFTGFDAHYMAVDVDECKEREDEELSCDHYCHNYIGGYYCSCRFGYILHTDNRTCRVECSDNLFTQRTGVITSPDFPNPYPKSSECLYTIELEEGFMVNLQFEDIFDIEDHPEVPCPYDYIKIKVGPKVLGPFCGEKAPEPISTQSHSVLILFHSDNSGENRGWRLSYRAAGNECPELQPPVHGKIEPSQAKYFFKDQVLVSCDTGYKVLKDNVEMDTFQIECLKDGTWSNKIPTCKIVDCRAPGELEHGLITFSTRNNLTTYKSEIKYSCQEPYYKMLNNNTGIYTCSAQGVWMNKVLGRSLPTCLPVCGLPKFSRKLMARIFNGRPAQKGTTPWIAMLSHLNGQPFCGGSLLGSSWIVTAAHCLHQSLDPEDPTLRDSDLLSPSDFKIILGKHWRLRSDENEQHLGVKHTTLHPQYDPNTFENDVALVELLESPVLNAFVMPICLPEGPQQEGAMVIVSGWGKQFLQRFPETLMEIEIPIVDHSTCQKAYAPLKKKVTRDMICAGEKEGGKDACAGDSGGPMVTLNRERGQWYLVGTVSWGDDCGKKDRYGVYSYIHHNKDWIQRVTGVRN
The assay is described as above.
Excerpt: as §1, §2

Assay [3] has as its target Recombinant human MASP-2 (specificity ELISA, Example 14) (human, UniProt O00187 16-686, limits assumed). The assay is described as above.
Excerpt: as §1, §2

In assay [4] the target is T3, CFD (human, UniProt P00746 26-253, limits assumed).
T3 construct: Species read from 'Recombinant human MASP-2 or C1r, C1s, CFD, MASP-1 and MASP-3'; also called factor D; complement factor D
T3 sequence (P00746 26-253 limits assumed): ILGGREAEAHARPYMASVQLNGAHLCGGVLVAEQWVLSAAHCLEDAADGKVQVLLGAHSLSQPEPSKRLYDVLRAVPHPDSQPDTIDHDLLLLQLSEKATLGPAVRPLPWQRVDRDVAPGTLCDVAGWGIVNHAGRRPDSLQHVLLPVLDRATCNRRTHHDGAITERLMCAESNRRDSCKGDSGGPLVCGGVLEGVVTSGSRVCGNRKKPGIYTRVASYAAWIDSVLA
The assay is described as above.
Excerpt: as §1, §2

Assay [5] addresses T4, Human MASP-2 CCP1/CCP2/SP H508Q 'dog-like' (human, UniProt O00187 287-686, limits assumed).
T4 construct: also called dog-like variant of human MASP-2; MASP-2 H508Q
The assay can be described thus: BLI (Octet RED96), H508Q against wild-type human MASP-2 CCP1/CCP2/SP. The protocol:
All measurements were conducted with the Octet RED96 system (ForteBio) using PBS containing 1% BSA and 0.02% Tween 20 as assay buffer. […] After one step of baseline, the captured sensors were submerged into wells containing different concentrations of the target proteins (1.6-50 nM) for the association step (120 sec), and then transferred to empty wells for the dissociation step (200 sec). In all experiments, the captured sensor was also dipped in a well containing no analyte to allow single reference subtraction to compensate for the natural dissociation of the captured antibody. The recorded binding sensorgrams were analyzed with Octet data analysis software (ForteBio) to determine binding affinity (KD).
In general terms: BLI is a label-free optical method that tracks binding on a fibre tip over time.

The target of assay [6] is T3, CFD. The assay can be described thus: solid phase ELISA, against human MASP-2 as reference.
Excerpt: as §1, §2

The target of assay [7] is T5, C1s (human, UniProt P09871 16-688, limits assumed).
T5 construct: Species read from 'Recombinant human MASP-2 or C1r, C1s, CFD, MASP-1 and MASP-3'
T5 sequence (looked up): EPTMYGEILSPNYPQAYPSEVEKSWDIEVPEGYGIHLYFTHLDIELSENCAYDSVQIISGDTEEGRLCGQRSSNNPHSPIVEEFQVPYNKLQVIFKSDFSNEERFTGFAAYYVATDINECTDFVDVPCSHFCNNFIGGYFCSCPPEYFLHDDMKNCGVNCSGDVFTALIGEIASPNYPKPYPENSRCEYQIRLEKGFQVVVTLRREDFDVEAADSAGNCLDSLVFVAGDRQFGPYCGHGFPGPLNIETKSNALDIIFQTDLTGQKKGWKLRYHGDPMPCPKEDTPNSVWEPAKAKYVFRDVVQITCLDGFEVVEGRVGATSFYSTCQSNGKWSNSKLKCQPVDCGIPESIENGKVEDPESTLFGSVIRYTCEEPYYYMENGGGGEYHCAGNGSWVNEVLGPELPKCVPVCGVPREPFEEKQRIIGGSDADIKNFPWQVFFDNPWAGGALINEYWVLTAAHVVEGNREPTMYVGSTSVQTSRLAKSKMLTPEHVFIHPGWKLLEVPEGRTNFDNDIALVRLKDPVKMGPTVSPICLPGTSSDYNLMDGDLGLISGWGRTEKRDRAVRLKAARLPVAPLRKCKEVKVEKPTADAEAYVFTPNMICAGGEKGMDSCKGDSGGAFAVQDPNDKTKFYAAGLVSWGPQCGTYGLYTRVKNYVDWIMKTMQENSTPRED
The assay is described as above.
Excerpt: as §1, §2

Chain of Recombinant human MASP-2 (specificity ELISA, Example 14) (O00187 16-686 limits assumed): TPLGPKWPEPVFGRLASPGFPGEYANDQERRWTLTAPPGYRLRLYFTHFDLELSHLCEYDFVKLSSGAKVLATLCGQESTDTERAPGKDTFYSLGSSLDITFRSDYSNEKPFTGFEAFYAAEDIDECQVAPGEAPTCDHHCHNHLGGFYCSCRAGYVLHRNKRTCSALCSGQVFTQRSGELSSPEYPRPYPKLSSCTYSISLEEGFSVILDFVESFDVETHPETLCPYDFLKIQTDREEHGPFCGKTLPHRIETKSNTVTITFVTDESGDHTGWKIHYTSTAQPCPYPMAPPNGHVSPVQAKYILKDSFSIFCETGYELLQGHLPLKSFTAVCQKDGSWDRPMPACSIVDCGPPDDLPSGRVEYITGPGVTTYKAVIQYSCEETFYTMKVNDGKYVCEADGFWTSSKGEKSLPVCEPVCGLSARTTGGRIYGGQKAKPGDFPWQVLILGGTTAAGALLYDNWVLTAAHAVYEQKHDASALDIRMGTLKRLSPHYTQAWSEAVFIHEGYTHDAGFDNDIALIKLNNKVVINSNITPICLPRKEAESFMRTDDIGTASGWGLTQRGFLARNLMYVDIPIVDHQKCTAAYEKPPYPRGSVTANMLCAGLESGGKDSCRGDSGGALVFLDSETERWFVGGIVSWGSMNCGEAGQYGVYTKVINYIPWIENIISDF
T4 sequence (O00187 other isoform, or with tags, fused parts or gaps H508Q H508Q limits assumed): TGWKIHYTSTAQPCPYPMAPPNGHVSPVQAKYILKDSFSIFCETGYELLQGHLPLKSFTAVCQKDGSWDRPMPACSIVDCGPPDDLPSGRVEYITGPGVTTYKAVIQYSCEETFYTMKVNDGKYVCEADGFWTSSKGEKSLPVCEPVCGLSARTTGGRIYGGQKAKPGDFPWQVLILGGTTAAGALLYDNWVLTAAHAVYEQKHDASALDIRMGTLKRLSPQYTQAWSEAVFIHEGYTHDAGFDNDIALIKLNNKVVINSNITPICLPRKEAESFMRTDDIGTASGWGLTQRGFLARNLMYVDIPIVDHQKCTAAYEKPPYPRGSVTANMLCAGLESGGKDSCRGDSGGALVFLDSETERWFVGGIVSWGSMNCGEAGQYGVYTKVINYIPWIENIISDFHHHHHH

B1: mAb OMS858 (humanized anti-MASP-2 antibody) (antibody, V domains shown)
VH: QVQLVQSGAEVKKPGASVKVSCKASGYTFTNHHMHWLRQAPGQGLEWIGDIDASDSETHYIEKFKDRATLTIDKSSSTAYMELSSLRSEDTAVYYCARGDITTTLRYFDVWGQGTLVTVSS
VL: DIQLTQSPSSLSASVGDRVTITCSASSSVRYMYWYQQKPGKAPKLLIYDTSNLASGVPSRFSGSGSGTDNTLTISSLQPEDFATYYCQQWSSYPLTFGQGTKVEIKR
notes: also called antibody OMS858; biotinylated OMS858
For B1, the Kd in assay [1] was above 100 µg/mL; in assay [2], above 100 µg/mL; in assay [3], 0.047 µg/mL; in assay [4], above 100 µg/mL. Moreover, the “fold reduction of binding affinity against wild-type human MASP-2 CCP1/CCP2/SP” value in assay [5] was around 450 fold. Also, the “Fold selectivity (KD related serine protease / mean KD MASP-2)” value in assay [6] and in assay [7] was above 2000 fold in each case.

These data come from patent US20230265215A1 (OMEROS, published 2023).
